Source: patent US20220040304A1, “A COMPOSITION FOR CANCER CELL DEATH AND ITS USE” (Industry-University Cooperation Foundation Hanyang …, priority 2018, published 2022)

Columns and labels:
[1] = system: superoxide; assay: ROS generation: superoxide measured by decrease of DHE fluorescence; type: biochemical
Procedure: A ROS-generating effect of the RLuc8.6-KR protein was confirmed using 100 μL of buffer (50 mM HEPES-KOH, 24° C., pH 7.4) containing RLuc8.6-KR protein (final concentration: 10 μM), dihydroethidium (DHE, Sigma Aldrich, USA; final concentration of 100 μM) whose fluorescence intensity decreases in the presence of superoxide and a Co-h substrate solution. The rate of decrease in fluorescence intensity was measured at the excitation wavelength of 370 nm and the emission wavelength of 420 nm of DHE using a plate reader.
A ROS-generating effect of RLuc8.6-KR protein was measured using RLuc8.6-KR protein (final concentration: 10 μM) and DHE (final concentration: 100 μM) whose fluorescence intensity decreases in the presence of superoxide, and
Here, the active oxygen generation rate of each protein was measured using 100 μL of buffer (50 mM HEPES-KOH, 24° C., pH 7.4) containing FMN (final concentration: 150 μM) and a Co-h substrate solution (final concentration: 150 μM).
The rate of decrease in fluorescence intensity was measured at the excitation wavelength of 370 nm and the emission wavelength of 420 nm of DHE using a plate reader. In addition, the rate of decrease in fluorescence intensity was measured at the excitation wavelength of 380 nm and the emission wavelength of 430 nm of ADPA using a plate reader.
(§1) A ROS generation rate was measured using 100 μL of buffer (50 mM HEPES-KOH, 24° C., pH 7.4) containing the KR protein, RLuc8.6-KR protein (final concentration: 10 μM) and DHE (final concentration: 100 μM) whose fluorescence intensity decreases in the presence of superoxide.
A ROS generation rate was measured using 100 μL of buffer (50 mM HEPES-KOH, 24° C., pH 7.4) containing MS, RLuc8-MS (final concentration: 10 μM), DHE (final concentration: 100 μM) whose fluorescence intensity decreases in the presence of superoxide and FMN (final concentration: 150 μM).
After irradiation with light (referred to as +LED Light) at 10 mW/cm^2 for 30 minutes, the rate of decrease in fluorescence intensity was measured at the excitation wavelength of 370 nm and the emission wavelength of 420 nm of DHE using a plate reader.
as §1, with “μM),” for “μM) and”, “superoxide and a Co-h substrate solution (final concentration: 150 μM).” for “superoxide.”
A ROS generation rate was measured using 100 μL of buffer (50 mM HEPES-KOH, 24° C., pH 7.4) containing MS, RLuc8-MS (final concentration: 10 μM), DHE (final concentration: 100 μM) whose fluorescence intensity decreases in the presence of superoxide, FMN (final concentration: 150 μM) and a Co-h substrate solution (final concentration: 150 μM). The rate of decreasing fluorescence intensity was measured at an excitation wavelength of 370 nm and an emission wavelength of 420 nm of DHE using a plate reader.
A ROS generation rate was measured by reaction of 100 μL of buffer (50 mM HEPES-KOH, 24° C., pH 7.4) containing RLuc8.6-KR protein (final concentration: 10 μM), DHE (final concentration: 100 μM) whose fluorescence intensity decreases in the presence of superoxide, ROS scavenger (SOD (superoxide scavenger, final concentration 800U/ml), sodium azide (Singlet oxygen scavenger; final concentration: 100 mM) and D-mannitol (hydroxyl radical scavenger; final concentration: 100 mM), respectively) for 30 minutes. […]

[2] = system: MCF-7 cells; assay: Cell death according to presence of serum and protein concentration (Co-h); type: cell-based, human; conditions: MCF-7, serum-free media or serum-containing media, 12 hours, Co-h 150 μM
Procedure: MCF-7 cells were seeded at 5×10^5 cells/mL in a 96-well plate (SPL Cell Culture Plate, 96 well (SPL, Cat #30096)), and cultured at 37° C. for 24 hours (overnight). After the culture for 24 hours, the cells were washed with FBS & Phenol red-free media (RPMI), and 100 μL of FBS & Phenol red-free media (RPMI) or FBS media (RPMI) containing a predetermined concentration of purified protein, followed by reaction at 37° C. for 12 hours.
After the reaction for […], the cells were washed with FBS & Phenol red-free media (RPMI), 100 μL of FBS & Phenol red-free media (RPMI) containing a Co-h substrate solution (final concentration: 150 μM) and SYTOX Green (final concentration: 261 nM) staining DNA of dead cells was added, followed by reaction at 37° C. for 30 minutes.
After the reaction, 10 μL of DAPI staining DNA of live cells was added, followed by reaction for 5 minutes. Cell death was confirmed by observing KillerRed, SYTOX Green and DAPI fluorescence using a confocal microscope.

[3] = system: patient breast cancer cell lines (primary cells, triple negative); assay: Cytotoxic effect in patient primary breast cancer cells (triple negative); type: cell-based; conditions: protein 10 μM
Procedure: Cells were seeded at 5×10^5 cells/mL in 96-well plates (SPL Cell Culture Plate, 96 well (SPL, Cat #30096)), and cultured at 37° C. for 24 hours. After the culture for 24 hours, the cells were washed with primary cell media, and 100 μL of primary cell media containing a purified protein (final concentration: 10 μM) was added, followed by reaction at 37° C. for 12 hours.
After the reaction for 24 hours, the cells were washed with primary cell media, and 100 μL of primary cell media was added. After treatment with a Co-h substrate solution (final concentration: 150 μM) for 5 minutes or irradiation with light at 10 mW/cm^2 for 5 minutes, 50 μL of SYTOX Green (final concentration: 261 nM) staining DNA of dead cells was added, followed by reaction at 37° C. for 30 minutes.
10 μL of DAPI staining DNA of live cells was added, followed by reaction for 5 minutes. Cell death was confirmed by fluorescence imaging of SYTOX Green and DAPI fluorescence according to the type of protein treating cells and the light irradiation time using a confocal microscope. Data on patient breast cancer cell lines used in this example are as follows (Table 5).

B1: KR: first protein KillerRed, ROS-generating protein (superoxide), expressed from pRSET-KillerRed, 31 kDa (protein)
chain: MRGSHHHHHHGMASMTGGQQMGRDLYDDDDKDPMLCCMRRTKQVEKNDEDQKISEGGPALFQSDMTFKIFIDGEVNGQKFTIVADGSSKFPHGDFNVHAVCETGKLPMSWKPICHLIQYGEPFFARYPDGISHFAQECFPEGLSIDRTVRFENDGTMTSHHTYELDDTCVVSRITVNCDGFQPDGPIMRDQLVDILPNETHMFPHGPNAVRQLAFIGFTTADGGLMMGHFDSKMTFNGSRAIEIPGPHFVTIITKQMRDTSDKRDHVCQREVAYAHSVPRITSAIGSDED
modifications: pRSET-KillerRed
notes: first protein KillerRed, ROS-generating protein (superoxide), expressed from pRSET-KillerRed, 31 kDa
[1]; 10 mW/cm^2, 30 minutes, no substrate, protein 10 μM, DHE
  superoxide generation rate after light irradiation: higher superoxide generation rate
[1]; RLuc8.6-KR 10 μM, Co-h 150 μM 30 minutes, SOD 800 U/ml, sodium azide 100 mM or D-mannitol 100 mM
  superoxide generation rate by Co-h reaction after ROS scavenger treatment: lowest when SOD was treated

B2: RLuc8.6-KR-LP: fusion protein of RLuc8.6, KillerRed and lead peptide WLEAAYQRFL, 71 kDa (protein)
chain: MRGSHHHHHHGMASMTGGQQMGRDLYDDDDKDPMASKVYDPEQRKRMITGPQWWARCKQMNVLDSFINYYDSEKHAENAVIFLHGNATSSYLWRHVVPHIEPVARCIIPDLIGMGKSGKSGNGSYRLLDHYKYLTAWFELLNLPKKIIFVGHDWGSALAFHYAYEHQDRIKAIVHMESVVDVIESWMGWPDIEEELALIKSEEGEKMVLENNFFVETLLPSKIMRKLEPEEFAAYLEPFKEKGEVRRPTLSWPREIPLVKGGKPDVVQIVRNYNAYLRASDDLPKLFIESDPGFFYNAIVEGAKKFPNTEFVKVKGLHFLQEDAPDEMGKYIKSFVERVLKNEQEFGGGMLCCMRRTKQVEKNDEDQKISEGGPALFQSDMTFKIFIDGEVNGQKFTIVADGSSKFPHGDFNVHAVCETGKLPMSWKPICHLIQYGEPFFARYPDGISHFAQECFPEGLSIDRTVRFENDGTMTSHHTYELDDTCVVSRITVNCDGFQPDGPIMRDQLVDILPNETHMFPHGPNAVRQLAFIGFTTADGGLMMGHFDSKMTFNGSRAIEIPGPHFVTIITKQMRDTSDKRDHVCQREVAYAHSVPRITSAIGSDEDGGGWLEAAYQRFL
modifications: pRSET-RLuc8.6-KillerRed-Lead peptide
[2]
  number of cells stained with SYTOX Green according to protein concentration: the higher the number of cells stained with SYTOX Green
[3]; Co-h 150 μM for 5 minutes
  death of Co-h substrate-added cells compared with light irradiation: more effectively shown
[3]; Co-h 150 μM for 5 minutes or light 10 mW/cm^2 for 5 minutes
  cytotoxic effect in patient breast cancer cell lines: a cytotoxic effect was exhibited

B3: RLuc8.6-KR: fusion protein of RLuc8.6 and KillerRed without lead peptide, 69 kDa (protein)
chain: MRGSHHHHHHGMASMTGGQQMGRDLYDDDDKDPMASKVYDPEQRKRMITGPQWWARCKQMNVLDSFINYYDSEKHAENAVIFLHGNATSSYLWRHVVPHIEPVARCIIPDLIGMGKSGKSGNGSYRLLDHYKYLTAWFELLNLPKKIIFVGHDWGSALAFHYAYEHQDRIKAIVHMESVVDVIESWMGWPDIEEELALIKSEEGEKMVLENNFFVETLLPSKIMRKLEPEEFAAYLEPFKEKGEVRRPTLSWPREIPLVKGGKPDVVQIVRNYNAYLRASDDLPKLFIESDPGFFYNAIVEGAKKFPNTEFVKVKGLHFLQEDAPDEMGKYIKSFVERVLKNEQEFGGGMLCCMRRTKQVEKNDEDQKISEGGPALFQSDMTFKIFIDGEVNGQKFTIVADGSSKFPHGDFNVHAVCETGKLPMSWKPICHLIQYGEPFFARYPDGISHFAQECFPEGLSIDRTVRFENDGTMTSHHTYELDDTCVVSRITVNCDGFQPDGPIMRDQLVDILPNETHMFPHGPNAVRQLAFIGFTTADGGLMMGHFDSKMTFNGSRAIEIPGPHFVTIITKQMRDTSDKRDHVCQREVAYAHSVPRITSAIGSDED
modifications: pRSET-RLuc8.6-KillerRed
[1]; Co-h 150 μM, 30-min reaction, without light irradiation, protein 10 μM, DHE
  superoxide generation rate after Co-h substrate reaction: highest superoxide generation rate
[1]; protein 10 μM, Co-h 150 μM, DHE
  reaction time with Co-h until which the superoxide generation rate increased, then constantly maintained: 30 min
[1]; protein 10 μM, DHE 100 μM, substrate reaction time 5 minutes
  Co-h concentration until which the superoxide generation rate increased, then constantly maintained: 150 µM
